Molecular target: the molecule itself
Assay: SEC-MALS

B1: FAM92A1 BAR domain (1–219 aa) (domain or fragment, UniProt A1XBS5 1-219, looked up)
chain: MMRRTLENRNAQTKQLQTAVSNVEKHFGELCQIFAAYVRKTARLRDKADLLVNEINAYAATETPHLKLGLMNFADEFAKLQDYRQAEVERLEAKVVEPLKTYGTIVKMKRDDLKATLTARNREAKQLTQLERTRQRNPSDRHVISQAETELQRAAMDASRTSRHLEETINNFERQKMKDIKTIFSEFITIEMLFHGKALEVYTAAYQNIQNIDEDEDLE
  stoichiometry N: 2

— publication PMC6314547 (The Journal of Cell Biology, 2019)
